{"source": "patent US20110280888A1", "molecules": {"B1": {"name": "murine 5F1 antibody (m5F1) (antibody, V domains shown)", "VH": "EVQLQQSGPELVKPGASVRMSCTASGYTFTSYVMHWIKQKPGQGLDWIGYINPYNGGTQYNEKFKGKATLTSDKSSSTAYMELSSLTSEDSAVYYCARRTFPYYFDYWGQGTTLTVSS", "VL": "DVLMTQTPLSLPVSLGDQASISCRSSQSILHSNGNTYLEWYLQKPGQSPKLLIYKVSNRFSGVPDRFSGSGSGTDFTLKISRVEAEDLGVYYCFQGSHAPLTFGAGTKLELK"}}, "key": {"[1]": {"target": "carbohydrate containing epitope on CD43 and/or CEA as expressed on COLO 205 colorectal cancer cells", "assay": "flow cytometry on Colo 205 cells, secondary antibody alone"}, "[2]": {"target": "carbohydrate containing epitope on CD43 and/or CEA as expressed on SU.86.86 pancreatic cancer cells", "assay": "flow cytometry on SU.86.86 cells, secondary antibody alone at 1 ug/ml"}, "[3]": {"target": "carbohydrate containing epitope on CD43 and/or CEA as expressed on COLO 205 colorectal cancer cells", "assay": "flow cytometry on Colo 205 cells, antibody at 1 ug/ml, R-PE secondary"}, "[4]": {"target": "carbohydrate containing epitope on CD43 and/or CEA as expressed on COLO 205 colorectal cancer cells", "assay": "flow cytometry on Colo 205 cells, control antibody"}, "[5]": {"target": "carbohydrate containing epitope on CD43 and/or CEA as expressed on COLO 205 colorectal cancer cells", "assay": "flow cytometry on Colo 205 cells, antibody at 1 ug/ml, R-PE anti-mouse secondary"}, "[6]": {"target": "carbohydrate containing epitope on CD43 and/or CEA as expressed on SU.86.86 pancreatic cancer cells", "assay": "cell-based or functional assay"}, "[7]": {"target": "carbohydrate containing epitope on CD43 and/or CEA as expressed on SU.86.86 pancreatic cancer cells", "assay": "flow cytometry on SU.86.86 cells, antibody at 1 ug/ml, R-PE anti-mouse secondary"}}, "data": [{"molecule": "R-PE-conjugated goat F(ab')2 anti-mouse IgG(H+L), Southern Biotech, Cat. No.1032-09 (antibody)", "values": [{"measurement": "background signal (MFI)", "setting": "[1]", "result": 3, "unit": "MFI"}, {"measurement": "MFI", "setting": "[2]", "result": 6, "unit": "MFI"}]}, {"molecule": "R-PE-conjugated goat anti-human IgG, Southern Biotech, Cat. No.2040-09 (antibody)", "values": [{"measurement": "background signal (MFI)", "setting": "[1]", "result": 3, "unit": "MFI"}]}, {"molecule": "hIgG1 (control antibody of Table 10)", "values": [{"measurement": "Median Fluorescence Intensity (MFI)", "setting": "[3]", "result": 6, "unit": "MFI"}]}, {"molecule": "human IgG (control antibody of FIG. 3)", "values": [{"measurement": "background signal (MFI)", "setting": "[4]", "result": 5, "unit": "MFI"}]}, {"molecule": "mIgG3 (control antibody of Table 10)", "values": [{"measurement": "Median Fluorescence Intensity (MFI)", "setting": "[3]", "result": 7, "unit": "MFI"}]}, {"molecule": "mouse IgG (control antibody of FIG. 3)", "values": [{"measurement": "background signal (MFI)", "setting": "[4]", "result": 4, "unit": "MFI"}]}, {"molecule": "B1", "values": [{"measurement": "Median Fluorescence Intensity (MFI)", "setting": "[5]", "result": 800, "unit": "MFI"}, {"measurement": "% of Annexin V and/or PI positive cells, SU.86.86 cells, 6 h, m5F1 at 2 ug/ml", "setting": "[6]", "result": 60, "unit": "%"}, {"measurement": "% of Annexin V and/or PI positive cells, SU.86.86 cells, 6 h, m5F1 at 4 ug/ml", "setting": "[6]", "result": 72, "unit": "%"}, {"measurement": "% of Annexin V and/or PI positive cells, SU.86.86 cells, 6 h, m5F1 at 8 ug/ml", "setting": "[6]", "result": 78, "unit": "%"}, {"measurement": "% of Annexin V and/or PI positive cells, SU.86.86 cells, 6 h, m5F1 at 16 ug/ml", "setting": "[6]", "result": 89, "unit": "%"}, {"measurement": "% of Annexin V and/or PI positive cells, SU.86.86 cells, 6 h, m5F1 at 32 ug/ml", "setting": "[6]", "result": 91, "unit": "%"}, {"measurement": "MFI", "setting": "[7]", "result": 131, "unit": "MFI"}]}]}
